Reference: patent US20220073650A1 (AFFIRIS, published 2022)
No end group written: not given here.

Experiments:
peptide p6773 = target: T1, peptide p6773 (human, not fully specified (residue 18)); assay: peptide ELISA
T1 peptide: LPQPPPQAQPLLPQPQPC

[1] = target: T2, recombinant N-terminal Huntingtin fragment recHTT610 (human, UniProt P42858 1-610); assay: recHTT610 capture ELISA
T2 construct: range 1-610; Used as extract of transiently transfected HEK293 cells, captured by anti-V5 antibody on the plate or spiked into human serum; also called recombinant HTT610; recombinant Huntingtin; not shown: two C-terminal V5 tags
Procedure: Binding of antibodies to N-terminal fragment HTT610 was determined by a standard protein capture ELISA procedure using Maxisorb™ ELISA plates (Thermo; CatNr. 439454), coated with 50 μl of a 1:5000 rabbit anti V5 mAB (Sigma, CatNr. V8137), blocking with blocking buffer (PBS, 1% BSA, 0.1% Tween 20), capturing of recombinant Huntingtin from HEK cell extracts (100 ng/μl total protein) followed by incubation with several dilutions of mouse anti HTT sera (1:100; 1:300 and 1:900) or with mAB2166 as reference (diluted 1:2000; Millipore, Cat Nr. MAB2166) for 1 hour at RT. ELISA incubations, washing and detection procedures were performed according to standard procedures.

peptide p7564 = target: T3, peptide p7564 (human, not fully specified (residue 1)); assay: peptide ELISA
T3 construct: also called 'cleaved' peptide
T3 peptide: CPSDSSEIVLD

peptide p7562 = target: T4, peptide p7562 (human, not fully specified (residue 1)); assay: peptide ELISA
T4 peptide: CDSSEIVLD

peptide p7552 = target: T5, peptide p7552 (human, not fully specified (residue 1)); assay: peptide ELISA
T5 peptide: CSSEIVLD

T2 sequence (P42858 1-610): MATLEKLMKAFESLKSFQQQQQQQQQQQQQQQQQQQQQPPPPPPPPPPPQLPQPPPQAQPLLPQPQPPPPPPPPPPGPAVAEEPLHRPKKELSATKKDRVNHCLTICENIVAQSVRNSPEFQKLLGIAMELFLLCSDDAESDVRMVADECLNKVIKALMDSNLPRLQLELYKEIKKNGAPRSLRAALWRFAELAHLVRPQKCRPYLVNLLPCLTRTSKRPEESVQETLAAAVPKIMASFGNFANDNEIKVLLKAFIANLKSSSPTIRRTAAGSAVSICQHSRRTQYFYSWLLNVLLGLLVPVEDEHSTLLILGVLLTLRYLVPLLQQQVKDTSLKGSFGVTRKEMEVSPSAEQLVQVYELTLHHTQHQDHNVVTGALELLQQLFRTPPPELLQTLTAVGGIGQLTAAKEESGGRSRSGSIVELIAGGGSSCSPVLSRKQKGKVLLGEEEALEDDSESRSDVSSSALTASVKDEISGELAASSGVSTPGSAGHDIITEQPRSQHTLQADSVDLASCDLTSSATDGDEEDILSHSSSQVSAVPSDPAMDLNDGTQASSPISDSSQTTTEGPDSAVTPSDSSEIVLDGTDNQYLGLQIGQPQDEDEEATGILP

B1: monoclonal antibody PRR13 (antibody, V domains shown)
VH: EVQLQQSAPELVKPGASVKMSCKASGYSFTDFYMKWVKQSHGKGLEWIGDIDPKNGDTFYNQKFKGRATLTVDKSSSTAYMQLNSLTTEDSAVYYCATYYGYTMDYWGQGTSVTVSS
VL: QIVLTQSPAIMSASLGERVTMTCTASSSVTSSYLHWYQQKPGSSPKLWIYSTSNLASGVPARFSGSGSGTSYSLTISSMEAEDAATYYCHQYRRPPRTFGGGTKLEIKR
notes: Mouse IgG2a from hybridoma, immunogen p6773; also called mAB PRR13; PPR13
B1 was tested, and the binding result (peptide p6773) was “binds” and the “signal to noise ratio (reHTT610-specific signal: HEK ctrl extracts)” value [1] was no less than 4.

B2: monoclonal antibody M1D1 (antibody, V domains shown)
VH: EVQLVESGGGLVQPKGSLKLSCAASGFTFNTYAMNWVRQAPGKGLEWVARIRSKSNNYATYYADSVKDRFTISRDDSQSMLYLQMNNLKTEDTAMYYCVRHGEYGNPWFAYWGQGTLVTVSA
VL: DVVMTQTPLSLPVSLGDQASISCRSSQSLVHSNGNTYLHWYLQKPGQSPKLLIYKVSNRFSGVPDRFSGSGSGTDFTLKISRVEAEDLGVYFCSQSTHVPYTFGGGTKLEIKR
notes: Typed as mouse IgM; hybridoma, immunogen p7564; also called mAB M1D1
B2: binds (peptide p7564); binds (peptide p7562); binds (peptide p7552).
